assay: yeast display, Sf9 membrane polyspecificity reagent, FACS + sequencing; frameworks hold sequencing errors
How it was run: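 Galactose induction of a Saccharomyces cerevisiae BJ5465 synthetic nanobody display library ran 36–48 hours. The cells were then stained for 1 hour at 4 °C with 10% biotinylated, detergent-solubilized Sf9 membrane reagent, pulled down on streptavidin microbeads and FACS-sorted into low and high (top ~1%) gates on expression and reagent-binding fluorescence. Labels for polyreactivity follow the gate of origin.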

| Sequence | polyreactivity (PSR sort gate) |
| --- | --- |
| QVQLVESGGGLVQAGGSLRLSCAASGRTFIKYAMGWYRQAPGKERELVAAITYSAGSTSYADSVKGRFTISRDNAKNTVYLQMNSLKPEDTAVYYCNAVPTWWTQEVGSYKSLGYWGQGTQVTVSS | low polyreactivity |
| QVQLVESGGGLVQAGGSLRLSCAASGRTFINNAMGWYRQAPGKERELVAAISWDGGRTYYADSVKGRFTISRDNAKNTVYLQMNSLKPEDTAVYYCNAQPNYAYHGEDDYWGQGTQVTVSS | high polyreactivity |
| QVQLVESGGGLVQAGGSLRLSCAASGRTFIPYAMGWYRQAPGKERELVATIRRGGSTYYADSVKGRFTISRDNAKNTVYLQMYSLKPEDTAVYYCAATRYSFGPRRVDYWGQGTQVTVSS | high polyreactivity |
| QVQLVESGGGLVQAGGSLRLSCAASGRTFIPYGMGWYRQAPGKERELVAAIRDGGSTNYADSVKGRFTISRDNAKNTVYLQMNSLKPADTAVYYCNADLPVYVDYINGGYGYWGQGTQVTVSS | low polyreactivity |
| QVQLVESGGGLVQAGGSLRLSCAASGRTFIRYAMAWYRQAPGKGRELLAANNWSGSTYYADSVKGRFTISRDNAKNTVYVQINSLKPEDTAVYYCAAYPYGVTNAYGSWGQGTQVTVSS | high polyreactivity |
| QVQLVESGGGLVQAGGSLRLSCAASGRTFIRYAMGWYRQAPGKERELVAAITQSGGSTYYADSVKGRFTISRDNAKNTVYLQMNSLKPEDTAVYYCAAEYRYPGWSYNYWGQGTQVTVSS | high polyreactivity |
| QVQLVESGGGLVQAGGSLRLSCAASGRTFISNAMGWYRQAPGKERELVAAISSVGSTNYADSVKGRFTISRDNAKNTVYLQMKSLKPEDTAVYYCAAGRFWFLAHYGGYYWGQGTQVTVSS | high polyreactivity |
| QVQLVESGGGLVQAGGSLRLSCAASGRTFISNTMGWYRQAPGKERELVAALSGSGGSTYYADSVKGRFTISRDNAKNSVYLNMNRLKPEDTAVYYCNAPYVRQTRFGQSVRNNYWGQGTQVTVSS | high polyreactivity |
| QVQLVESGGGLVQAGGSLRLSCAASGRTFISYAMGWYRQAPGKERELVAGISTSGDNTYNADSVKGRFTISRDNAKNTVYLQMNSLKPEDTAVYYCAAGQDLHDFDYWGQGTQVTVSS | low polyreactivity |
| QVQLVESGGGLVQAGGSLRLSCAASGRTFIVNAMGWYRQAPGKERELVAAITKGARTYYADSVKGRFTISRDNAKNTVYLQMNSLKPEDSAVYYCAAVSYTQSHAYWGTGYRYGYWGQGTQVTVSS | high polyreactivity |
| QVQLVESGGGLVQAGGSLRLSCAASGRTFIYNVMGWYRQAPGKERELVASIRSSGGSTYYADSVKGRFTISRDNAKNSVYLQMNSLKPEDTAVYYCAADRSPGIRCWPGDYWGQGTQVTVSS | low polyreactivity |
| QVQLVESGGGLVQAGGSLRLSCAASGRTFIYYAMGWYRQAPGKEREFVAIISWNGTSTNYADSVKGRFTISRDNAKNTVYLQMNSLKPEDTAVYYCAASFWTDYYRYDYWGQGTQVTVSS | low polyreactivity |
| QVQLVESGGGLVQAGGSLRLSCAASGRTFIYYAMGWYRQAPGKERELVAAITNRGGRTYYADSVKWRFTISRDNAKYTVYLQMNSLKPEDTAVYYCNRVGTYHSYDYWGQGTQVTVSS | high polyreactivity |
| QVQLVESGGGLVQAGGSLRLSCAASGRTFIYYTMGWYREAPGKERELVASISFSGGRTYYADSVKGRFTISRDNAKNTVYLQMNSLKAEDTAVYYCNRVLYYQVDYWGQGTEVTVSS | high polyreactivity |
| QVQLVESGGGLVQAGGSLRLSCAASGRTFKDYVMGWYRQAPGKERELVAAITWRGGRTYYADSVKGRFTISRDNAKNTVYLQMNSLKPEDTAVYYCAAAEYFVSGGIMDYWGQGTQVTVSS | high polyreactivity |
| QVQLVESGGGLVQAGGSLRLSCAASGRTFKGYTMGWYRQAPGKERELVAAITRSGGGTYYADSVKGRFTISRDNAKNTVYLQMNSLKPEDTAVYYCAAYNGSRRQEFDYWGQGTQVTVSS | high polyreactivity |
| QVQLVESGGGLVQAGGSLRLSCAASGRTFKLYAMGWYRQAPGKERELVATIRRSGTRTYADSVKGRFTISRDNAKNTVYLQMNSLKPEDTAVYYCAATTYGYVYHRYDYWGQGTQVTVSS | high polyreactivity |
| QVQLVESGGGLVQAGGSLRLSCAASGRTFKPYAMGWYRQAPGKERELVAAISTRGGSTYADSVKGRFTISRDNAKNTVYLQMNSLKPEDTAVYSCAAVYYRASARKFGYWGQGTQVTVSS | low polyreactivity |
| QVQLVESGGGLVQAGGSLRLSCAASGRTFKPYGMGWYRQAPGKERELVAAISSRGDITYYADSVKGRFTISRDNAKNTVYLQMNSLKPEDTAVYYCNADLYRKRAWVRRDGSWGQGTQVTVSS | low polyreactivity |
| QVQLVESGGGLVQAGGSLRLSCAASGRTFKRFAMGWYRQAPGKERELVAAITWSGGNTYYADSVKGRFTISRDNAKNTVYLQMNSLKPEDTAVYYCAAKGAGRRYDSWGQGTQVTVSS | high polyreactivity |
| QVQLVESGGGLVQAGGSLRLSCAASGRTFKSYAMGWYRQAPGKERELVATITRDGRTNYADSVKGRFTISRDNAKNTVYLQMNSLKPEDTAVYYCNADSRYRYDYWGLGTQVTVSS | low polyreactivity |
| QVQLVESGGGLVQAGGSLRLSCAASGRTFKWNAMGWYRQAPGKERELVAAISSRDGSTYYADSVKGRFTISRDNAKNTVYLQMNSLKPEDTAVYYCNAYFTGARQRTLGYDYWGQGTQVTVSS | low polyreactivity |

| Sequence | polyreactivity (PSR sort gate) |
| --- | --- |
| QVQLVESGGGLVQAGGSLRLSCAASGRTFKWNPMGWYRQAPGKERELVAAITRSDGRTFYADSVKGRFTISRDNAKNTVYLQMNSLKPEDSAVYYCNALGYRNSVIYSGFDYWGQGTQVTVSS | low polyreactivity |
| QVQLVESGGGLVQAGGSLRLSCAASGRTFKYYAMGWARQAPGKERELVATISYNGASTYYADSVKGRFTSSRDNAKNSVYLQMNSQKPEDTAVYYCAAAYLWRGRLGYWGQGTQVTVSS | high polyreactivity |
| QVQLVESGGGLVQAGGSLRLSCAASGRTFKYYAMGWYRQAPGKERELVAAISLSSGRTYYADSVKGRFTISRDNAKNTVYLQMNSLKPEDTAVYYCAAERYASGLVYGYDYWGQGTQVTVSS | high polyreactivity |
| QVQLVESGGGLVQAGGSLRLSCAASGRTFKYYAMGWYRQAPGKERELVAAISRGGSTNYADSVKGRFTISRDNAKNTVYLQVNSLKPEDTAVYYCARRYIVQSGDDYWGQGTQVTVSS | low polyreactivity |
| QVQLVESGGGLVQAGGSLRLSCAASGRTFKYYAMGWYRQAPGKERELVAAISYNGGSTFYADSVKGRFTISRDNAKNTVYLQMNSLKPEDTAVYYCAAGSRYASELDYWGQGTQVTVSS | high polyreactivity |
| QVQLVESGGGLVQAGGSLRLSCAASGRTFKYYAMGWYRQAPGKERELVAAITYRDRTYYADSVKGRFTISRDNAKNTVYLQMNSLKPEDTAVYYCAAQHYGSDGRGFDYWGQGTQVTVSS | low polyreactivity |
| QVQLVESGGGLVQAGGSLRLSCAASGRTFKYYAMGWYRQAPGKERELVAGITSGSSTSYADSVKGRFTISRDNAKITVYLQMNSLKPEDTAVYFCAAGIYQYRYDYWGQGTQVTVSS | high polyreactivity |
| QVQLVESGGGLVQAGGSLRLSCAASGRTFKYYAMGWYRQAPGKERELVAGITYRDGRTYYADSVKGRFTISRDNAKNTVYLQMNSLKPEDTEVYYCAAERYSSPYWGMDYWGQGTQVTVSS | high polyreactivity |
| QVQLVESGGGLVQAGGSLRLSCAASGRTFKYYAMGWYRQAPGKERELVASISASGGSTRYADSVKGRFTISRDNAKNTVYLQMNSLKPEDTAVYYCAADRGYKYYYWGLGTQVTVSS | high polyreactivity |
| QVQLVESGGGLVQAGGSLRLSCAASGRTFKYYTMGWYRQAPGKEREFVAAITSSGGRTYYADSVKGRFTISRDNAKNTVDLQMNSLKPEDTAVYYCAASTYRVWLAPATLSRYDYWGQGTQVTVSS | high polyreactivity |
| QVQLVESGGGLVQAGGSLRLSCAASGRTFLAYAMGWYRQAPGKERELVAAISSSGSTTYYADSVKGRFTISRDNAKNTVYLQMNSLKPEDTAVYYCAASNGYRSSYYRYDYWGQGTQVTVSS | low polyreactivity |
| QVQLVESGGGLVQAGGSLRLSCAASGRTFLEYAMGWYRQAPGKERELVASITWSGDTTYYADSVKGRFTISRDNAKNTVYLQMNSLKPEDTAVYYCAAGYYYPNTYYSYDWYDYWGQGTQVTVSS | low polyreactivity |
| QVQLVESGGGLVQAGGSLRLSCAASGRTFLGYTMGWYRQAPGKESEFVAAITFSGDSTYYADSVKGRFTISRDNAKNTVYLQMNSLKPEDTAVYYCAARIKYYTYLFYYWGQGTQVTVSS | high polyreactivity |
| QVQLVESGGGLVQAGGSLRLSCAASGRTFLHNAKGWYRQAHGKERELVAAIDSGGTTHYADSVKGRFTISRDNAKNTVYLQMKSLKPEDTAVYYCAARPTRGNWWYGYWGQGTQVTVSS | low polyreactivity |
| QVQLVESGGGLVQAGGSLRLSCAASGRTFLINAMGWYRQAPGKEWELVAAITQSGGSTYYADSVKGRFTISRDKAKNTVYLQLNSLKPEDTAVYYCAADVPGVYPYDYWGQGTQVTVSS | low polyreactivity |
| QVQLVESGGGLVQAGGSLRLSCAASGRTFLIYAMGWYRQAPGKERELVAAITSGGRTKYADSVKGRFTISRDNAKNTVYLQMNSLKPEDTAVYYCAARTGVYRYSRKFYYWGQGTQVTVSS | high polyreactivity |
| QVQLVESGGGLVQAGGSLRLSCAASGRTFLKNAMGWYRQAPGKERELVAAITSGGSTNYADSVKGRFTISRDNAKNTVYLQMNSLKPEDTAVYYCNAPSYWYYPVLGSFLTFDYWGQGTQVTVSS | low polyreactivity |
| QVQLVESGGGLVQAGGSLRLSCAASGRTFLLYAMGWYRQAPGKERELVAAITSGGGRTYYADSVKGRFTISRDNAKNTVYLQMNSLKPEDTAVYYCAATRPATYAAYDYWGQGTQVTVSS | high polyreactivity |
| QVQLVESGGGLVQAGGSLRLSCAASGRTFLQYAMGWYRQAPGKERELVAANTTSGGDTYYADSVKGRFTISRDNAKNTVYLQMNSMKPDDTAVYYCNAAFRVYIPHVPYFVDFDYWGQGTQVTLSS | low polyreactivity |
| QVQLVESGGGLVQAGGSLRLSCAASGRTFLVYAMGWYRQAPGKERELVAAIRYSGSSTYADSVKGRFTISRDNAKNTVYLQMNSLKPEDTAVYDCNARRASYRSIYDYWGHGTQVTVSS | high polyreactivity |
| QVQLVESGGGLVQAGGSLRLSCAASGRTFLVYAMGWYRQAPGKERELVAAITYSDGSTYYADSVKGRFTISRDNAKNTVYLQMNSLKPEDTAVYFCAADSSTFPSDYYWGKGTQVTVSS | low polyreactivity |
